From paper PMC10172142 come the findings set out here.

The target in experiment [1] is CPR Wolfebacteria Fe-SodFM1, wild type (CPR Wolfebacteria (uncultured bacterial candidate phyla radiation)). Briefly: crystal structure; sitting drop vapour diffusion at 20 °C; 100 mM sodium acetate trihydrate pH 4.5, 25% wt/vol polyethylene glycol 3350; data collected at 100 K.
Experiment [2] shares this target. Nature of the experiment: SEC; analytical size exclusion chromatography, Superdex 200 10/300 increase, 20 mM Tris pH 7.5, 150 mM NaCl, calibrated with molecular weight standards. In general terms: SEC sorts molecules by how far they enter the pores of the column.

As a reminder, the stoichiometry N is the number of molecules, sites or subunits per partner or assembly. For “CPR Wolfebacteria Fe-SodFM1, wild type (enzyme)”, the stoichiometry N in experiment [1] and in experiment [2] was 2 throughout.
